Here are results for 18 molecules from patent publication US20120094899A1 (Takeda / Millennium, published 2012).

Non-standard residues stand in square brackets, D forms with d. No end group written: not given here. *: point of attachment. Acetyl(2-(piperazin-1-yl)) = O=C(CN1CCNCC1)*; PEG 20 kDa = methoxypolyethylene glycol 20k; 2Nal = N[C@@H](Cc1ccc2ccccc2c1)C(=O)O; Arg(Me) = CNC(=N)NCCC[C@H](N)C(=O)O; NMeY = CN[C@@H](Cc1ccc(O)cc1)C(=O)O; NMeR = CN[C@@H](CCCNC(=N)N)C(=O)O; Cha = N[C@@H](CC1CCCCC1)C(=O)O; NMeL = CN[C@@H](CC(C)C)C(=O)O; NMeA = CN[C@@H](C)C(=O)O; βAla = NCCC(=O)O

One experiment has as its target T1, human TGR1 (human, UniProt Q9GZQ4 1-415).
T1 construct: whole, on cells; Assayed as the membrane fraction of TGR1-expressing CHO cells (1.1 mg/mL protein); also called NMUR2; TGR1 receptor
The experiment in a line: displacement of 125I-NMU8 from human TGR1 CHO membrane fraction; IC50 relative to NMU-8.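 Also: competitive binding on TGR1-expressing CHO cell membranes, with compounds tested as DMSO dilution series and incubated for 70 min at 25 °C.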

In the next experiment the target is T2, Human FM3 (human, UniProt Q9HB89 1-426).
T2 construct: whole, on cells; Assayed as the membrane fraction of FM3-expressing CHO cells (1.2 mg/mL protein); also called NMUR1; FM3 receptor
T2 sequence (looked up): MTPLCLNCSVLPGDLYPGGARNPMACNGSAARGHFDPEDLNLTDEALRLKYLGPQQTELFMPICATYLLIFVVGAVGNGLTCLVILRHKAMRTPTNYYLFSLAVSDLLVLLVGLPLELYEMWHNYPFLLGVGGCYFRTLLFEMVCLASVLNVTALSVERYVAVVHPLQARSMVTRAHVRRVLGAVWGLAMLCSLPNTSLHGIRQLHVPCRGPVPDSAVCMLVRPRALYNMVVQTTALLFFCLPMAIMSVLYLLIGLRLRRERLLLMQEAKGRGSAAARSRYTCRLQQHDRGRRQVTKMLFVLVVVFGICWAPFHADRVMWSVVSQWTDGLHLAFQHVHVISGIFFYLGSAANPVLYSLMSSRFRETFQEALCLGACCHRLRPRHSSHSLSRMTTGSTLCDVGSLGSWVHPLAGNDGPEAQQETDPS
The experiment in a line: displacement of 125I-NMU8 from human FM3 CHO membrane fraction; IC50 relative to NMU-8.

Experiment [1] addresses T3, Human FM3 (human), Q9HB89.
T3 chain: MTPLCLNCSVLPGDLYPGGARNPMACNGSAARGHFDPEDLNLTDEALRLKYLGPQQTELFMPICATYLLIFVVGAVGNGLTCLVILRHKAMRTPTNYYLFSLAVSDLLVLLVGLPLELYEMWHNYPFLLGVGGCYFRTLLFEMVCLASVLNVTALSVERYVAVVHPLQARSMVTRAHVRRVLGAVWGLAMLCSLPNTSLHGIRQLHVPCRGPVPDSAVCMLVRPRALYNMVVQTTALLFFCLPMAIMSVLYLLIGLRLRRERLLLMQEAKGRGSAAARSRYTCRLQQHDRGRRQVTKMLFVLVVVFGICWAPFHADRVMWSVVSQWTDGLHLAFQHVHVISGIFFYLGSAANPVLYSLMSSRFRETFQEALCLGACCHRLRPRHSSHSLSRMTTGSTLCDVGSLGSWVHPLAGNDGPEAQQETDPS
The experiment is described as above. As to conditions: remark: other sources report otherwise.

T1 sequence (Q9GZQ4 whole entry): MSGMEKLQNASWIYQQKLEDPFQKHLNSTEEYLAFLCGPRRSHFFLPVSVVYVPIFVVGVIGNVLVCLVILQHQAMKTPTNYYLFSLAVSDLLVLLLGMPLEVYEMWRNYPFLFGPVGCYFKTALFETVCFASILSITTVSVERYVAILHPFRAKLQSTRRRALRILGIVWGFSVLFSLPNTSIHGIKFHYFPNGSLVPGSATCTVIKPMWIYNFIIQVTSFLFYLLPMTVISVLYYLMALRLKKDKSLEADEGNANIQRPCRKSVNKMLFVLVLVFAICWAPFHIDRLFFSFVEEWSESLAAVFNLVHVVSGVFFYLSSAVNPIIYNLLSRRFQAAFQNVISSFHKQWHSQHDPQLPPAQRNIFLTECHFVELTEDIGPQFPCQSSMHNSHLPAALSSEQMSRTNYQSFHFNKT
Method for human TGR1: 15 mL of homogenized buffer (10 mM NaHCO₃ (pH 7.4), 5 mM EDTA, protease inhibitor=0.5 mM PMSF, 10 μg/mL Pepstatin A, 20 μg/mL Leupeptin, and 4 μg/mL E-64) was added to the obtained cell pellets, the cellular membrane was disrupted using a polytron homogenizer (Kinematica GmbH), centrifugation was conducted for 10 minutes at 1,000 g at 4° C., and the supernatant was collected. This process was further repeated twice, and ultracentrifugation was conducted for 60 minutes at 30,000 rpm at 4° C. Thereafter, 8 mL of homogenized buffer was added to the pellets and suspended homogeneously to prepare a membrane fraction. The protein concentration of the FM3-expressing CHO cellular membrane fraction was 1.2 mg/mL, and the protein concentration of the TGR1-expressing CHO cellular membrane fraction was 1.1 mg/mL.
Specifically, each of the NMU derivatives and PEG conjugates was dissolved in DMSO so as to prepare 2 μL of each dilution series of the NMU derivatives and PEG conjugates. […] The resulting product was thoroughly mixed, and then a reaction was carried out at 25° C. for 70 minutes.

B1: β-Ala0,Cha3-NMU-8 (Compound 6) (peptide)
peptide: [βAla]YF[Cha]FRPRN-NH2
modifications: N-terminus assumed
SMILES: N=C(N)NCCC[C@H](NC(=O)[C@@H]1CCCN1C(=O)[C@H](CCCNC(=N)N)NC(=O)[C@H](Cc1ccccc1)NC(=O)[C@H](CC1CCCCC1)NC(=O)[C@H](Cc1ccccc1)NC(=O)[C@H](Cc1ccc(O)cc1)NC(=O)CCN)C(=O)N[C@@H](CC(N)=O)C(N)=O
notes: X stands for Cha
With B1, the IC50 ratio was 9.9 ratio to NMU-8 (=1) in the experiment with human TGR1 and 0.55 ratio to NMU-8 (=1) in the experiment with Human FM3.

B2: PEG20k-NpipAc0,Nal(2)2,NMeAla6-NMU-8 (Compound V) (peptide)
peptide: {mPEG 20 kDa-Acetyl(2-(piperazin-1-yl))}-Y[2Nal]LFR[NMeA]RN-NH2
notes: X stands for Nal(2); also called PEG20k-NpipAc-Nal(2)2,NMeAla6-NMU8
In the case of B2, the IC50 ratio is 27 ratio to NMU-8 (=1) with human TGR1 and 10000 ratio to NMU-8 (=1) in the experiment with Human FM3.

B3: NpipAc0,Nal(2)2,NMeAla6-NMU-8 (Compound 22) (peptide)
peptide: {Acetyl(2-(piperazin-1-yl))}-Y[2Nal]LFR[NMeA]RN-NH2
SMILES: CC(C)C[C@H](NC(=O)[C@H](Cc1ccc2ccccc2c1)NC(=O)[C@H](Cc1ccc(O)cc1)NC(=O)CN1CCNCC1)C(=O)N[C@@H](Cc1ccccc1)C(=O)N[C@@H](CCCNC(=N)N)C(=O)N(C)[C@@H](C)C(=O)N[C@@H](CCCNC(=N)N)C(=O)N[C@@H](CC(N)=O)C(N)=O
notes: X stands for Nal(2); also called 2-(piperazin-1-yl)acetyl-[Nal(2)2,NMeAla6]-NMU8
Consider B3, for which the IC50 ratio was 1.7 ratio to NMU-8 (=1) with human TGR1 and 99 ratio to NMU-8 (=1) in the experiment with Human FM3.

B4: β-Ala0,NMeLeu3,NMeArg7-NMU-8 (Compound 15) (peptide)
peptide: [βAla]YF[NMeL]FRP[NMeR]N-NH2
modifications: N-terminus assumed
SMILES: CC(C)C[C@@H](C(=O)N[C@@H](Cc1ccccc1)C(=O)N[C@@H](CCCNC(=N)N)C(=O)N1CCC[C@H]1C(=O)N(C)[C@@H](CCCNC(=N)N)C(=O)N[C@@H](CC(N)=O)C(N)=O)N(C)C(=O)[C@H](Cc1ccccc1)NC(=O)[C@H](Cc1ccc(O)cc1)NC(=O)CCN
On to B4, for which the results for the IC50 ratio in the experiment with human TGR1 and with Human FM3 were 19 ratio to NMU-8 (=1) and 8.6 ratio to NMU-8 (=1), respectively.

B5: NpipAc0,Trp2,Ala6-NMU-8 (Compound 20) (peptide)
peptide: {Acetyl(2-(piperazin-1-yl))}-YWLFRARN-NH2
SMILES: CC(C)C[C@H](NC(=O)[C@H](Cc1c[nH]c2ccccc12)NC(=O)[C@H](Cc1ccc(O)cc1)NC(=O)CN1CCNCC1)C(=O)N[C@@H](Cc1ccccc1)C(=O)N[C@@H](CCCNC(=N)N)C(=O)N[C@@H](C)C(=O)N[C@@H](CCCNC(=N)N)C(=O)N[C@@H](CC(N)=O)C(N)=O
notes: also called 2-(piperazin-1-yl)acetyl-[Trp2,Ala6]-NMU8
B5: the IC50 ratio was 1.9 ratio to NMU-8 (=1) in the experiment with human TGR1 and 900 ratio to NMU-8 (=1) in the experiment with Human FM3.
The like results for {mPEG 20 kDa-βAla}-YF[NMeL]FRP[NMeR]N-NH2 [PEG20k-NH-β-Ala0,NMeLeu3,NMeArg7-NMU-8 (Compound O)] were, in that order, 170 ratio to NMU-8 (=1) and 75 ratio to NMU-8 (=1).
{mPEG 30 kDa-βAla}-YFLF[NMeR]PRN-NH2 [PEG30k-NH-β-Ala0,NMeArg5-NMU-8 (Compound M)]: the IC50 ratio with human TGR1 was 29 ratio to NMU-8 (=1); in the experiment with Human FM3, 9 ratio to NMU-8 (=1).
The like results for {mPEG 20 kDa-βAla}-[NMeY]F[NMeL]F[NMeR]PRN-NH2 [PEG20k-NH-β-Ala0,NMeTyr1,NMeLeu3,NMeArg5-NMU-8 (Compound P)] were, in that order, 240 ratio to NMU-8 (=1) and 83 ratio to NMU-8 (=1).

B6: PEG30k-NH-β-Ala0,Cha3-NMU-8 (Compound F) (peptide)
peptide: {mPEG 30 kDa-βAla}-YF[Cha]FRPRN-NH2
notes: X stands for Cha; also called PEG-NH-β-Ala0,Cha3-NMU-8
With B6, the IC50 ratio with human TGR1 was 11 ratio to NMU-8 (=1); with Human FM3, 1.3 ratio to NMU-8 (=1).

B7: β-Ala0,Arg(Me)7-NMU-8 (Compound 14) (peptide)
peptide: [βAla]YFLFRP[Arg(Me)]N-NH2
modifications: N-terminus assumed
SMILES: CNC(=N)NCCC[C@H](NC(=O)[C@@H]1CCCN1C(=O)[C@H](CCCNC(=N)N)NC(=O)[C@H](Cc1ccccc1)NC(=O)[C@H](CC(C)C)NC(=O)[C@H](Cc1ccccc1)NC(=O)[C@H](Cc1ccc(O)cc1)NC(=O)CCN)C(=O)N[C@@H](CC(N)=O)C(N)=O
As for B7, the IC50 ratio with human TGR1 was 3.6 ratio to NMU-8 (=1); in the experiment with Human FM3 it was 6.3 ratio to NMU-8 (=1).
Regarding {mPEG 30 kDa-βAla}-YFLFRP[Arg(Me)]N-NH2 [PEG30k-NH-β-Ala0,Arg(Me)7-NMU-8 (Compound N)], the IC50 ratio in the experiment with human TGR1 was 63 ratio to NMU-8 (=1); with Human FM3, 290 ratio to NMU-8 (=1).

B8: NpipAc0,Phe1,Trp2,Ala6-NMU-8 (Compound 11) (peptide)
peptide: {Acetyl(2-(piperazin-1-yl))}-FWLFRARN-NH2
SMILES: CC(C)C[C@H](NC(=O)[C@H](Cc1c[nH]c2ccccc12)NC(=O)[C@H](Cc1ccccc1)NC(=O)CN1CCNCC1)C(=O)N[C@@H](Cc1ccccc1)C(=O)N[C@@H](CCCNC(=N)N)C(=O)N[C@@H](C)C(=O)N[C@@H](CCCNC(=N)N)C(=O)N[C@@H](CC(N)=O)C(N)=O
notes: also called 2-(piperazin-1-yl)acetyl-[Phe1,Trp2,Ala6]-NMU-8
As to B8, in the experiment with human TGR1, the IC50 ratio was 0.19 ratio to NMU-8 (=1). Besides, in experiment [1], the IC50 ratio (ratio to NMU-8 (=1)) is 280.

B9: PEG20k-NpipAc0,Phe1,Trp2,Ala6-NMU-8 (Compound K) (peptide)
peptide: {PEG 20 kDa-Acetyl(2-(piperazin-1-yl))}-FWLFRARN-NH2
notes: also called PEG20k-NPipAc-Phe1, Trp2,Ala6-NMU-8
As for B9, the IC50 ratio with human TGR1 is 34 ratio to NMU-8 (=1). Further, the IC50 ratio (ratio to NMU-8 (=1)) in experiment [1] amounted to 11000.
As to {PEG 20 kDa-βAla}-YWLFR[NMeA]RN-NH2 [PEG20k-NH-β-Ala0,Trp2,NMeAla6-NMU-8 (Compound Q)], the IC50 ratio in the experiment with human TGR1 is 47 ratio to NMU-8 (=1); with Human FM3, 1600 ratio to NMU-8 (=1).

B10: β-Ala0,Gln5-NMU-8 (Compound 1) (peptide)
peptide: [βAla]YFLFQPRN-NH2
modifications: N-terminus assumed
SMILES: CC(C)C[C@H](NC(=O)[C@H](Cc1ccccc1)NC(=O)[C@H](Cc1ccc(O)cc1)NC(=O)CCN)C(=O)N[C@@H](Cc1ccccc1)C(=O)N[C@@H](CCC(N)=O)C(=O)N1CCC[C@H]1C(=O)N[C@@H](CCCNC(=N)N)C(=O)N[C@@H](CC(N)=O)C(N)=O
B10: the values for the IC50 ratio with human TGR1 and with Human FM3 were 3.4 ratio to NMU-8 (=1) and 15 ratio to NMU-8 (=1), respectively.

B11: β-Ala0,Pro1-NMU-8 (Compound 8) (peptide)
peptide: [βAla]PFLFRPRN-NH2
modifications: N-terminus assumed
SMILES: CC(C)C[C@H](NC(=O)[C@H](Cc1ccccc1)NC(=O)[C@@H]1CCCN1C(=O)CCN)C(=O)N[C@@H](Cc1ccccc1)C(=O)N[C@@H](CCCNC(=N)N)C(=O)N1CCC[C@H]1C(=O)N[C@@H](CCCNC(=N)N)C(=O)N[C@@H](CC(N)=O)C(N)=O
As for B11, the IC50 ratio in the experiment with human TGR1 was 3.8 ratio to NMU-8 (=1); in the experiment with Human FM3 it was 0.59 ratio to NMU-8 (=1).

B12: β-Ala0,Tyr2-NMU-8 (Compound 5) (peptide)
peptide: [βAla]YYLFRPRN-NH2
modifications: N-terminus assumed
SMILES: CC(C)C[C@H](NC(=O)[C@H](Cc1ccc(O)cc1)NC(=O)[C@H](Cc1ccc(O)cc1)NC(=O)CCN)C(=O)N[C@@H](Cc1ccccc1)C(=O)N[C@@H](CCCNC(=N)N)C(=O)N1CCC[C@H]1C(=O)N[C@@H](CCCNC(=N)N)C(=O)N[C@@H](CC(N)=O)C(N)=O
notes: also called β-Ala0,Try2-NMU-8
B12: the results for the IC50 ratio with human TGR1 and in the experiment with Human FM3 were 0.17 ratio to NMU-8 (=1) and 0.44 ratio to NMU-8 (=1), respectively.

B13: β-Ala0,Val3-NMU-8 (Compound 4) (peptide)
peptide: [βAla]YFVFRPRN-NH2
modifications: N-terminus assumed
SMILES: CC(C)[C@H](NC(=O)[C@H](Cc1ccccc1)NC(=O)[C@H](Cc1ccc(O)cc1)NC(=O)CCN)C(=O)N[C@@H](Cc1ccccc1)C(=O)N[C@@H](CCCNC(=N)N)C(=O)N1CCC[C@H]1C(=O)N[C@@H](CCCNC(=N)N)C(=O)N[C@@H](CC(N)=O)C(N)=O
Consider B13, for which the figures for the IC50 ratio with human TGR1 and with Human FM3 were 0.37 ratio to NMU-8 (=1) and 0.43 ratio to NMU-8 (=1), respectively.
